The target of assay [1] is T1, recombinant human HGF (R&D Systems, Catalog No. 294-HGN-025) (human, UniProt P14210 32-728). The assay can be described thus: cell-based or functional assay.
For assay [2], the target named is T1, recombinant human HGF (R&D Systems, …). In words: cell-based or functional assay. The source holds these as a separate data set.
For assay [3] the target is unchanged. The assay can be described thus: SPR, antibody captured by anti-mouse Ig, HGF injected, 25 C. As to the method:
Rabbit anti-mouse immunoglobulins (BIAcore, Catalog No. BR-1005-14) were immobilized on carboxymethylated dextran CM5 sensor chips (BIAcore, Catalog No. BR-1006-68) by amine coupling (BIAcore, Catalog No. BR-1000-50) using a standard coupling protocol according to manufacturer's instructions. The analyses were performed at 25° C. using PBS (GIBCO, Catalog No. 14040-133) containing 0.05% surfactant P20 (BIAcore, Catalog No. BR-1000-54), 2 mg/mL BSA (EMD, Catalog No. 2930), and 10 mg/mL CM-Dextran Sodium salt (Fluka, Catalog No. 86524) as running buffer.
The antibodies were captured in an individual flow cell at a flow rate of 10 μL/min. Injection time was variable for each antibody to yield approximately 20 RU of antibody captured for each cycle. […] The dissociation phase was monitored for 15 or 90 minutes, depending on concentration. The surface then was regenerated with 10 mM Glycine-HCl, pH 1.7 (BIAcore, Catalog No. BR-1003-54) injected for 3 minutes at a flow rate of 60 μL/min before another cycle was initiated.
Kinetic parameters were determined using the kinetic function of the BIAevalutation software with reference subtraction.
Background: In SPR one partner is held on a chip, and binding of the other changes the refractive index at the surface.

Assay [4] has the same target. The assay can be described thus: competition ELISA (DELFIA): antibody inhibits c-Met binding to plate-coated HGF. As to the method:
The plates then were blocked with 200 μL of 5% non-fat dry milk in PBS for 1 hour at room temperature. […] 100 μL of sample per well was transferred to the assay plate and incubated overnight at 4° C.
The resulting plates then were washed three times with PBS-0.1% Tween 20, and incubated for 1 hour at room temperature with Eu-labeled Streptavidin (Wallac, Catalog No. 1244-360) diluted 1:1000 in DELFIA assay buffer (Wallac, Catalog No. 4002-0010). The resulting plates were washed 3 times with DELFIA wash solution (Wallac, Catalog No. 4010-0010) and incubated with 100 μL/well DELFIA enhancement solution (Wallac #4001-0010) for 15 minutes at room temperature with agitation.
The plates were read on Victor³V instrument (Perkin Elmer) using the Europium method.
In general terms: An ELISA detects its analyte on a solid surface through an enzyme-linked reagent.

Assay [5] has as its target hHGF-Fc C561R (recombinant hHGF protein containing a cysteine to arginine substitution at position 561) (human). The assay can be described thus: SPR, antibody immobilized, HGF protein injected, 25 C. As for the experimental part:
(§1) Each antibody was immobilized on a carboxymethylated dextran CM5 sensor chip (BIAcore, Catalog No. BR-1006-68) by amine coupling (BIAcore, Catalog No. BR-1000-50) using a standard coupling protocol according to manufacturer's instructions.
(§2) Analyses were performed at 25° C. using PBS (GIBCO, Catalog No. 14040-133) containing 0.05% surfactant P20 (BIAcore, Catalog No. R-1000-54), 2 mg/mL BSA (EMD, Catalog No. 2930) and 10 mg/mL CM-Dextran Sodium salt (Fluka, Catalog No. 86524) as running buffer. […] The resulting binding was determined as resonance units (RU) over baseline 30 seconds after the end of injection. […] Non-specific binding was monitored by comparing binding to a control surface where mouse IgG (Rockland, Catalog No. 010-0102) was immobilized using the same amine coupling procedure.

Assay [6] has as its target hHGF-Fc G555E (recombinant hHGF protein containing a glycine to glutamate substitution at position 555) (human). The description is as above. As to the method: as §1, §2
Assay [7] concerns the target T2, recombinant mouse HGF (R&D Systems) (mouse, UniProt Q08048 33-728).
T2 construct: Bought protein, construct not described; also called rmHGF (R&D Systems); murine HGF
Described as above. As for the experimental part: as §1, §2

Assay [8] addresses T1, recombinant human HGF (R&D Systems, …). In words: SPR, captured antibody, HGF injected, 25 C. As to the method:
Mouse anti-human immunoglobulins (Jackson Labs, Catalog No. 209-005) were immobilized on carboxymethylated dextran CM4 sensor chips (BIAcore, Catalog No. BR-1006-68) by amine coupling (BIAcore, Catalog No. BR-1000-50) using a standard coupling protocol according to manufacturer's instructions. The analyses were performed at 25° C. using PBS (GIBCO, Catalog No. 14040-133) containing 0.05% surfactant P20 (BIAcore, Catalog No. BR-1000-54), and 2 mg/mL BSA (EMD, Catalog No. 2930).
The antibodies were captured in an individual flow cell at a flow rate of 10 μL/min. Injection time was variable for each antibody to yield approximately 20 RU of antibody captured for each cycle. […] The dissociation phase was monitored for 15 or 90 minutes, depending on concentration. The surface then was regenerated with 10 mM Glycine-HCl, pH 2.2 (BIAcore, Catalog No. BR-1003-54) injected for 3 minutes at a flow rate of 60 μL/min before another cycle was initiated.
Kinetic parameters were determined using the kinetic function of the BIAevalutation™ software with reference subtraction.

Assay [9] has the same target. In words: cell-based or functional assay. The source holds these as a separate data set.
In assay [10] the target is T3, recombinant mhm chimeric HGF protein containing the region I499-R556 of hHGF disposed between murine sequences (mouse-human-mouse chimera, UniProt Q08048 56-728).
T3 construct: also called mhm chimera (I499-R556)
T3 chain: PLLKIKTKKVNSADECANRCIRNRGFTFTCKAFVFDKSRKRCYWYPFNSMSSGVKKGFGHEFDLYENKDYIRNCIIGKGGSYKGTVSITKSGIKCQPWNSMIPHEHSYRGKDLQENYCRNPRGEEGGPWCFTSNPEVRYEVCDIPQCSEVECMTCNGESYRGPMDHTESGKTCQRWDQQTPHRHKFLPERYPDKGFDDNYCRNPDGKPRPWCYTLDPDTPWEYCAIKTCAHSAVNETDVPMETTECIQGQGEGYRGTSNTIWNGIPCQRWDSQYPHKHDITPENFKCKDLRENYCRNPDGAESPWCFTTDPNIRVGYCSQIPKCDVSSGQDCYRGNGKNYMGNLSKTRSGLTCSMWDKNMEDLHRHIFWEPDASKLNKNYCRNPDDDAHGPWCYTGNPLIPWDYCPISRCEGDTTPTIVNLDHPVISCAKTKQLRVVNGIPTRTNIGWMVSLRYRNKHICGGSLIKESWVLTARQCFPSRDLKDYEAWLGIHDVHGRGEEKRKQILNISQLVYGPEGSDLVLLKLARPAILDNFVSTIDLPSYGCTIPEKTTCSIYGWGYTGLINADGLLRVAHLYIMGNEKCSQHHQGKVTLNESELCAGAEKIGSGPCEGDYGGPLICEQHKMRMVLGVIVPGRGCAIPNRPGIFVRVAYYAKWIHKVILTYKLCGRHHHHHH
In words: SPR, antibody immobilized, HGF protein injected, 25 C. As to the method: (§3) Analyses were performed at 25° C. using PBS (GIBCO, Catalog No. 14040-133) containing 0.05% surfactant P20 (BIAcore, Catalog No. R-1000-54), 2 mg/mL BSA (EMD, Catalog No. 2930) and 10 mg/mL CM-Dextran Sodium salt (Fluka, Catalog No. 86524) as running buffer. […] The resulting binding was determined as resonance units (RU) over baseline 30 seconds after the end of injection. […] Non-specific binding was monitored by comparing binding to a control surface.

Assay [11] addresses T4, recombinant mhm chimeric HGF protein containing human W507-L585 HGF sequence disposed within mouse HGF … (mouse-human-mouse chimera, UniProt Q08048 56-728).
T4 construct: CHO supernatant; also called mhm chimera (W507-L585); MHM chimera (507-585)
T4 chain: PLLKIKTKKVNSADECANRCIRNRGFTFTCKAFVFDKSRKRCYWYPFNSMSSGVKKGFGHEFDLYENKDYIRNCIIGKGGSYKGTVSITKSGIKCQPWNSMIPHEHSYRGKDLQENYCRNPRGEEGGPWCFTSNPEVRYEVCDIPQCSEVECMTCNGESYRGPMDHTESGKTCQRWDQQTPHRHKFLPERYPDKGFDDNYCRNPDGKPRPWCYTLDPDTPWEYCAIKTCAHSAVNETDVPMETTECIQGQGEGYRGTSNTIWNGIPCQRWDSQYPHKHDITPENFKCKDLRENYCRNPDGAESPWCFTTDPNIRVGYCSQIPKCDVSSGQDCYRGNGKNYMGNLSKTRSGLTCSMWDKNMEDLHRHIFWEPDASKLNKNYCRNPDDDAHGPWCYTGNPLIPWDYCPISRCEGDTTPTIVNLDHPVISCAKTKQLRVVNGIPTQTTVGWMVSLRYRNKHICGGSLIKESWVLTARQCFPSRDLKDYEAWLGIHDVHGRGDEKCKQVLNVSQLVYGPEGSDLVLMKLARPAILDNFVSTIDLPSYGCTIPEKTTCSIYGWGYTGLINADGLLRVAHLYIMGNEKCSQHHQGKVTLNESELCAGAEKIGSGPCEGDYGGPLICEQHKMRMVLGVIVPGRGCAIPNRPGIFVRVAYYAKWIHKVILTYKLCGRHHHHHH
Described as above. As to the method: as §3

Assay [12] has as its target T2, recombinant mouse HGF (R&D Systems). The assay is described as above. As for the experimental part:
as §3
This is another data set of the same source.

The target in assay [13] is T1, recombinant human HGF (R&D Systems, …). In words: competition ELISA (DELFIA): antibody inhibits biotinylated c-Met binding to plate-coated HGF. As to the method:
The plates then were blocked with 200 μL of 5% non-fat dry milk in PBS for 1 hour at room temperature. […] 100 μL of sample per well was transferred to the assay plate and incubated for 2 hours at room temperature. The resulting plates were washed three times with PBS-0.1% Tween 20, and incubated for 1 hour at room temperature with Eu-labeled Streptavidin (Wallac, Catalog No. 1244-360) diluted 1:1000 in DELFIA assay buffer (Wallac, Catalog No. 4002-0010). The resulting plates were washed 3 times with DELFIA wash solution (Wallac, Catalog No. 4010-0010) and incubated with 100 μL/well DELFIA enhancement solution (Wallac #4001-0010) for 15 minutes at room temperature with agitation. The plates were read on Victor³V instrument (Perkin Elmer) using the Europium method. The IC₅₀ values were calculated using Prism.

Assay [14] has the same target. The assay can be described thus: cell-based or functional assay. The source holds these as a separate data set.

The results in this text go back to US20140178935A1 (AVEO PHARMACEUTICALS, published 2014).

What is called Kd is the free concentration of one partner at which half of the binding sites on the other are occupied at equilibrium, for simple one-to-one binding. As a reminder, the koff is the first-order rate constant of dissociation. As usually defined, the kon is a measure of how fast the partners come together. As a reminder, the IC50 is the concentration that inhibits the measured activity by half.

Where two headings read alike, the source gives them in different places.

T1 sequence (P14210 32-728 limits assumed): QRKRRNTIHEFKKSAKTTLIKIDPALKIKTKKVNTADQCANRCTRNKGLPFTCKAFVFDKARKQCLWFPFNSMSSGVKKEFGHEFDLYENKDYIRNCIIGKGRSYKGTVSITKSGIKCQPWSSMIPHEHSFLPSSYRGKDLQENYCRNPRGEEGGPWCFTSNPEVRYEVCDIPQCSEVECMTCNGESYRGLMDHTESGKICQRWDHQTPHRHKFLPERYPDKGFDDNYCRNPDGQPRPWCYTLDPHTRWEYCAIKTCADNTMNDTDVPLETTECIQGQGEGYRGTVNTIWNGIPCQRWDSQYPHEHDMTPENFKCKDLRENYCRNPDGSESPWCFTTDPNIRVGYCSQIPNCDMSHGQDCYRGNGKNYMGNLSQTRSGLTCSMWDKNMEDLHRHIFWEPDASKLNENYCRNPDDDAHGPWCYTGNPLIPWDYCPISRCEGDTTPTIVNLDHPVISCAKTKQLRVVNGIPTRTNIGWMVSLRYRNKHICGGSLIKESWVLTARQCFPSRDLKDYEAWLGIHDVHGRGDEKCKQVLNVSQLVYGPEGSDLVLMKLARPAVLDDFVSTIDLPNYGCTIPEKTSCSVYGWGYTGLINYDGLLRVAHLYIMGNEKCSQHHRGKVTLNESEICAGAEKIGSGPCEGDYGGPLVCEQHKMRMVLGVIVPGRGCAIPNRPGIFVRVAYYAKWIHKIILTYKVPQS
T2 sequence (Q08048 33-728 limits assumed): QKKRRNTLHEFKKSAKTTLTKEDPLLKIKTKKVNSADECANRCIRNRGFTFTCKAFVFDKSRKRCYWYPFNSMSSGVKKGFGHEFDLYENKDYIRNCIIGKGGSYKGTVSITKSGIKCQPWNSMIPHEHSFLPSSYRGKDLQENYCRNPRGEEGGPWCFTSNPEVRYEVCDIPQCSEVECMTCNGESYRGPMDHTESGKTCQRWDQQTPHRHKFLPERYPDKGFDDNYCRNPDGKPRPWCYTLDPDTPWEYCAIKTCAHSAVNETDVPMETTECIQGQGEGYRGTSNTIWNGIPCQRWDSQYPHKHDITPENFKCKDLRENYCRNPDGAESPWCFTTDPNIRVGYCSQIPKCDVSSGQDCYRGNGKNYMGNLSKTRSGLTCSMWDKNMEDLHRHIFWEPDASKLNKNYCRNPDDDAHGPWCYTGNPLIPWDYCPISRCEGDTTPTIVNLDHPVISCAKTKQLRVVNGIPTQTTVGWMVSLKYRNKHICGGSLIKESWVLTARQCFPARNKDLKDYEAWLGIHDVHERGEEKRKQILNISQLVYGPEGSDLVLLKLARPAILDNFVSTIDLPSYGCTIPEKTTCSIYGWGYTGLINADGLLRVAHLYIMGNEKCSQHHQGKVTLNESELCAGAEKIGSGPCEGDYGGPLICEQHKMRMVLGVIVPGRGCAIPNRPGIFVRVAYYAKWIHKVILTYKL
Sequence of hHGF-Fc G555E (recombinant hHGF protein containing a glycine to glutamate substitution at position 555) (human) (chain, as listed by the source G555E G555E limits assumed): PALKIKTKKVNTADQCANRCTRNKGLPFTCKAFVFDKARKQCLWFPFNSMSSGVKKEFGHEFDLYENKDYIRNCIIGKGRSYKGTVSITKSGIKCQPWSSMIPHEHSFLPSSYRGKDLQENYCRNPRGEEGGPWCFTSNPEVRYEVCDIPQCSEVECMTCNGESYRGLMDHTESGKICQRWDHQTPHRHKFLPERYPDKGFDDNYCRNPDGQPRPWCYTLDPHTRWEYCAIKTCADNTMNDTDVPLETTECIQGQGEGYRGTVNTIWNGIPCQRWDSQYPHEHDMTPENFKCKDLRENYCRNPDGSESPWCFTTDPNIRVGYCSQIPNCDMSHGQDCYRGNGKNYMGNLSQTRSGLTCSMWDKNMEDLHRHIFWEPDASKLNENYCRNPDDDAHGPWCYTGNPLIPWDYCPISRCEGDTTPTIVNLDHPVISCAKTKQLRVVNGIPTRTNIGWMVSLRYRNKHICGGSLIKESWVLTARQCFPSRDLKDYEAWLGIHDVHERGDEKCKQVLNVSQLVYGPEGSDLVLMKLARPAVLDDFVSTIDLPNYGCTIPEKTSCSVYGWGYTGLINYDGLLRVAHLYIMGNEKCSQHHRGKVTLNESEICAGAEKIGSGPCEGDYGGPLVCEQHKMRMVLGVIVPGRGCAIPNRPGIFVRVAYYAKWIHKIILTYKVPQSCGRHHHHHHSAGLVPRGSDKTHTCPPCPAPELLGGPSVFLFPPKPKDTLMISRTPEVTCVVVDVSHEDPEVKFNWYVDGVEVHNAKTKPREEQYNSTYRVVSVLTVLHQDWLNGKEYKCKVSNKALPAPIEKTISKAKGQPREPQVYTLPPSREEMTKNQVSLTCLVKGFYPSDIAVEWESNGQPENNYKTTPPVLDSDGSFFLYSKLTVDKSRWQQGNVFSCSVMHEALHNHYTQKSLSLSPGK
Sequence of hHGF-Fc C561R (recombinant hHGF protein containing a cysteine to arginine substitution at position 561) (human) (chain, as listed by the source C561R C561R limits assumed): as the sequence (chain, as listed by the source G555E G555E limits assumed) above, with E501G, C507R counted along it

B1: anti-hHGF monoclonal antibody 1F3 (antibody, mouse IgG1, kappa, V domains shown)
VH: EVQLVESGGGLVQSGGSLKLSCAASGFTFSNYFMSWVRQTPEKRLEWVAYISSGGGSTYYPDSVKGRFTISRDNAKNTLYLQMSSLKSEDTAMYYCVRQGDGYYGDYAMDYWGQGTSVTVSS
VL: DIQMTQSPASLSVSVGETVTITCRASENIYSNLAWYQQKQGKSPQLLVYDATHLPDGVPSRFSGSGSGTQFSLKINSLQSEDFGSYYCQHFWGTPYTFGGGTRLEIKR
notes: Murine IgG1 kappa from hybridoma
Turning to B1, the “EC50, inhibition of HGF-stimulated c-Met phosphorylation in PC-3 cells, Average of Two Trials” value in assay [1] amounted to 1.19 nM. Besides, the “IC50, neutralization of HGF stimulated BrdU incorporation in 4 MBr-5 cells” value in [2] was determined as 1.94 nM. Moreover, in assay [3], the Kd came out at 0.0181 nM, the koff was 2.6e-05 s⁻¹ and the kon came out at 1.5e+06 M⁻¹ s⁻¹. In addition, the concentration for half-maximal inhibition (IC50) in assay [4] is 6.57 nM. The binding result in assay [5] is given as “binds”. Further, in [6], the binding result is recorded as “binds”. Further, in assay [7], the binding result is “binds”.

B2: HE2B8-1 (LR2B8HC + IgG1 constant region G1m(3) allotype allele 1, plus LR2B8LC + Kappa constant region Km(3) allotype allele 1) (antibody, V domains shown)
VH: QVQLVQPGAEVVKPGTSVKLSCKASGYTFTTYWMHWVNQAPGQGLEWIGEINPTNGHTNYNEKFKGKATLTVDKSTSTAYMELSSLRSEDTAVYYCARNYVGSIFDYWGQGTLLTVSS
VL: DIVMTQSPDSMAMSVGERVTLNCKASENVVSYVSWYQQKPGQSPKLLIYGASNRNTGVPDRFSGSGSATDFTLTISSVQAEDVADYHCGQSYNYPYTFGQGTKLEIKR
notes: Human Engineered 2B8 variant, human IgG1 kappa, made in HEK293E cells
Turning to B2, in assay [8], the Kd turned out to be 7.1 pM, the koff came to 1.4e-05 s⁻¹ and the kon amounted to 2.2e+06 M⁻¹ s⁻¹. In assay [9], the “EC50, inhibition of HGF-stimulated c-Met phosphorylation in PC-3 cells, Average of Two Trials” value was 0.8 nM. Also, in [10], the binding result is “binds”. The binding result in assay [11] is recorded as “binds”. Besides, in assay [12], the binding result is “no binding”. Also, the IC50 in [13] came to 6 nM. The “IC50, neutralization of HGF stimulated BrdU incorporation in 4 MBr-5 cells” value in [14] was found to be 0.47 nM.
